Values quoted from earlier work in patent US20200069786A1, “COMPOSITION AND PROCESS FOR PREPARING VACCINE” (TREOS BIO ZRT., priority 2018, published 2020).
Where two headings read alike, the source gives them in different places.

B1: MAGE-A3 (protein, UniProt P43357 1-314, looked up)
Melanoma-associated antigen 3: MPLEQRSQHCKPEEGLEARGEALGLVGAQAPATEEQEAASSSSTLVEVTLGEVPAAESPDPPQSPQGASSLPTTMNYPLWSQSYEDSSNQEEEGPSTFPDLESEFQAALSRKVAELVHFLLLKYRAREPVTKAEMLGSVVGNWQYFFPVIFSKASSSLQLVFGIELMEVDPIGHLYIFATCLGLSYDGLLGDNQIMPKAGLLIIVLAIIAREGDCAPEEKIWEELSVLEVFEGREDSILGDPKKLLTQHFVQENYLEYRQVPGSDPACYEFLWGPRALVETSYVKVLHHMVKISGGPHISYPPLHEWVLREGEE
B2: PLAC1 (protein, UniProt Q9HBJ0 23-212, looked up)
Placenta-specific protein 1: QSPMTVLCSIDWFMVTVHPFMLNNDVCVHFHELHLGLGCPPNHVQPHAYQFTYRVTECGIRAKAVSQDMVIYSTEIHYSSKGTPSKFVIPVSCAAPQKSPWLTKPCSMRVASKSRATAQKDEKCYEVFSLSQSSQRPNCDCPPCVFSEEEHTQVPCHQAGAQEAQPLQPSHFLDISEDWSLHTDDMIGSM
B3: SCP3a (protein, UniProt Q8IZU3 1-236, looked up)
Synaptonemal complex protein 3: MVSSGKKYSRKSGKPSVEDQFTRAYDFETEDKKDLSGSEEDVIEGKTAVIEKRRKKRSSAGVVEDMGGEVQNMLEGVGVDINKALLAKRKRLEMYTKASLKTSNQKIEHVWKTQQDQRQKLNQEYSQQFLTLFQQWDLDMQKAEEQEEKILNMFRQQQKILQQSRIVQSQRLKTIKQLYEQFIKSMEELEKNHDNLLTGAQNEFKKEMAMLQKKIMMETQQQEIASVRKSLQSMLF
B4: MAGE-A1 (protein, UniProt P43355 1-309, looked up)
Melanoma-associated antigen 1: MSLEQRSLHCKPEEALEAQQEALGLVCVQAATSSSSPLVLGTLEEVPTAGSTDPPQSPQGASAFPTTINFTRQRQPSEGSSSREEEGPSTSCILESLFRAVITKKVADLVGFLLLKYRAREPVTKAEMLESVIKNYKHCFPEIFGKASESLQLVFGIDVKEADPTGHSYVLVTCLGLSYDGLLGDNQIMPKTGFLIIVLVMIAMEGGHAPEEEIWEELSVMEVYDGREHSAYGEPRKLLTQDLVQEKYLEYRQVPDSDPARYEFLWGPRALAETSYVKVLEYVIKVSARVRFFFPSLREAALREEEEGV

Tested on: TSA
[1] = TSA expression rate in BLADDER cancer
[2] = TSA expression rate in Cervical cancer
[3] = TSA expression rate in Esophageal
[4] = TSA expression rate in GASTRIC cancer
[5] = TSA expression rate in HEAD and NECK
[6] = TSA expression rate in LEUKEMIAS
[7] = TSA expression rate in LYMPHOMAS
[8] = TSA expression rate in MELANOMA
[9] = TSA expression rate in PEDIATRIC
[10] = TSA expression rate in PROSTATE cancer

| Molecule | TSA Expression Rate (ER) (BRAIN) [%] | TSA Expression Rate (ER) (BREAST) [%] | TSA Expression Rate (ER) (HCC) [%] | TSA Expression Rate (ER) (LUNG) [%] | TSA Expression Rate (ER) (OVARIAN) [%] | TSA Expression Rate (ER) (PANCREATIC) [%] | TSA Expression Rate (ER) (THYROID) [%] | Expression Rate (ER) % [1] [%] | Expression Rate (ER) % (TSA expression rate in CRC) [%] | Expression Rate (ER) % [2] [%] | Expression Rate (ER) % [3] [%] | Expression Rate (ER) % [4] [%] | Expression Rate (ER) % [5] [%] | Expression Rate (ER) % (TSA expression rate in Kidney) [%] | Expression Rate (ER) % [6] [%] | Expression Rate (ER) % [7] [%] | Expression Rate (ER) % [8] [%] | Expression Rate (ER) % [9] [%] | Expression Rate (ER) % [10] [%] |
| --- | --- | --- | --- | --- | --- | --- | --- | --- | --- | --- | --- | --- | --- | --- | --- | --- | --- | --- | --- |
| B1 | 42 | 28 | 34 | 37 | 30 | 11 | 22 | 42 | 22 | 16 | 66 | 37 | 40 | 27 | 65 | 17 | 60 | 76 | 15 |
| B2 |  | 4 | 41 | 68 | 21 | 44 |  |  | 27 |  |  |  |  |  |  |  |  |  | 100 |
| B3 |  |  |  |  | 25 |  |  |  |  |  |  |  |  |  | 47 |  |  |  |  |
| B4 | 41 | 31 | 56 | 42 | 24 | 27 | 17 | 34 | 14 | 17 | 46 | 31 | 23 | 11 | 20 | 9 | 37 | 44 | 13 |
